The term EC50 denotes the midpoint of the concentration-response curve. The IC50 is the concentration that gives 50% inhibition. One may read the Kd as a measure of binding affinity in units of concentration.

One substance from patent US20230088052A1 can be followed below.

The target of experiment [1] is his-tagged human IL-4R recombinant protein (h-IL-4R-his) (human) (UniProt P24394). In words: binding ELISA, human IL-4R-his coated.
For experiment [2] the target is unchanged. In words: binding ELISA, human IL-4R-his coated. The source holds these as a separate data set.
The target of experiment [3] is humanized Fc-tagged human IL-4R recombinant protein (h-IL-4R-Fc) (human) (UniProt P24394). Briefly: blocking ELISA: human IL-4R-Fc coated, antibody blocks the binding of IL-4.
Experiment [4] deals with his-tagged human IL-4R recombinant protein (h-IL-4R-his) (human) (UniProt P24394). Briefly: Biacore SPR: antibody captured, IL-4R antigen in flow, 1:1 model. For orientation: Surface plasmon resonance follows binding to a sensor surface in real time, without labels.
The target in experiment [5] is humanized Fc-tagged human IL-4R recombinant protein (h-IL-4R-Fc) (human) (UniProt P24394). Briefly: blocking ELISA of human IL-4/IL-4R.
In experiment [6] the target is his-tagged human IL-4R recombinant protein (h-IL-4R-his) (human) (UniProt P24394). In words: binding ELISA, human IL-4R-his coated. This is another data set of the same source.
The target of experiment [7] is humanized Fc-tagged human IL-4R recombinant protein (h-IL-4R-Fc) (human) (UniProt P24394). In words: blocking ELISA: human IL-4R-Fc coated, antibody blocks the binding of IL-4. This is another data set of the same source. A general note: In an ELISA, binding on a coated surface is turned into a signal by an enzyme label.

Read-outs that look alike come from different tables or passages of the source.

Dupilumab (antibody), sequence (VH): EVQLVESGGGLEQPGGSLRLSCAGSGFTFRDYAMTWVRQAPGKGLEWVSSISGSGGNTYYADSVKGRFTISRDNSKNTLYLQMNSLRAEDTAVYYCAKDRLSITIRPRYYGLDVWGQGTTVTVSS
Dupilumab (antibody), sequence (VL): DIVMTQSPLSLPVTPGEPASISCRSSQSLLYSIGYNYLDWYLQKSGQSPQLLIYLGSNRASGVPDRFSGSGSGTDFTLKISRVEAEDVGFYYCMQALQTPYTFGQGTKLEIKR

As for Dupilumab (antibody), the EC50 in experiment [1] was found to be 0.0426 µg/mL; in experiment [2] it was 0.0276 µg/mL; in experiment [6], 0.0558 µg/mL. Also, the IC50 in experiment [3] came out at 0.209 µg/mL; in experiment [5], 0.156 µg/mL; in experiment [7], 0.0521 µg/mL. The dissociation constant (Kd) in experiment [4] was determined as 0.126 nM.
